Literature values in article PMC5179943.

Target: LRP2/Megalin (Homo sapiens) (UniProt P98164)
Test: solid phase binding assay

Chain of UniProt P98164 (P98164 26-4423): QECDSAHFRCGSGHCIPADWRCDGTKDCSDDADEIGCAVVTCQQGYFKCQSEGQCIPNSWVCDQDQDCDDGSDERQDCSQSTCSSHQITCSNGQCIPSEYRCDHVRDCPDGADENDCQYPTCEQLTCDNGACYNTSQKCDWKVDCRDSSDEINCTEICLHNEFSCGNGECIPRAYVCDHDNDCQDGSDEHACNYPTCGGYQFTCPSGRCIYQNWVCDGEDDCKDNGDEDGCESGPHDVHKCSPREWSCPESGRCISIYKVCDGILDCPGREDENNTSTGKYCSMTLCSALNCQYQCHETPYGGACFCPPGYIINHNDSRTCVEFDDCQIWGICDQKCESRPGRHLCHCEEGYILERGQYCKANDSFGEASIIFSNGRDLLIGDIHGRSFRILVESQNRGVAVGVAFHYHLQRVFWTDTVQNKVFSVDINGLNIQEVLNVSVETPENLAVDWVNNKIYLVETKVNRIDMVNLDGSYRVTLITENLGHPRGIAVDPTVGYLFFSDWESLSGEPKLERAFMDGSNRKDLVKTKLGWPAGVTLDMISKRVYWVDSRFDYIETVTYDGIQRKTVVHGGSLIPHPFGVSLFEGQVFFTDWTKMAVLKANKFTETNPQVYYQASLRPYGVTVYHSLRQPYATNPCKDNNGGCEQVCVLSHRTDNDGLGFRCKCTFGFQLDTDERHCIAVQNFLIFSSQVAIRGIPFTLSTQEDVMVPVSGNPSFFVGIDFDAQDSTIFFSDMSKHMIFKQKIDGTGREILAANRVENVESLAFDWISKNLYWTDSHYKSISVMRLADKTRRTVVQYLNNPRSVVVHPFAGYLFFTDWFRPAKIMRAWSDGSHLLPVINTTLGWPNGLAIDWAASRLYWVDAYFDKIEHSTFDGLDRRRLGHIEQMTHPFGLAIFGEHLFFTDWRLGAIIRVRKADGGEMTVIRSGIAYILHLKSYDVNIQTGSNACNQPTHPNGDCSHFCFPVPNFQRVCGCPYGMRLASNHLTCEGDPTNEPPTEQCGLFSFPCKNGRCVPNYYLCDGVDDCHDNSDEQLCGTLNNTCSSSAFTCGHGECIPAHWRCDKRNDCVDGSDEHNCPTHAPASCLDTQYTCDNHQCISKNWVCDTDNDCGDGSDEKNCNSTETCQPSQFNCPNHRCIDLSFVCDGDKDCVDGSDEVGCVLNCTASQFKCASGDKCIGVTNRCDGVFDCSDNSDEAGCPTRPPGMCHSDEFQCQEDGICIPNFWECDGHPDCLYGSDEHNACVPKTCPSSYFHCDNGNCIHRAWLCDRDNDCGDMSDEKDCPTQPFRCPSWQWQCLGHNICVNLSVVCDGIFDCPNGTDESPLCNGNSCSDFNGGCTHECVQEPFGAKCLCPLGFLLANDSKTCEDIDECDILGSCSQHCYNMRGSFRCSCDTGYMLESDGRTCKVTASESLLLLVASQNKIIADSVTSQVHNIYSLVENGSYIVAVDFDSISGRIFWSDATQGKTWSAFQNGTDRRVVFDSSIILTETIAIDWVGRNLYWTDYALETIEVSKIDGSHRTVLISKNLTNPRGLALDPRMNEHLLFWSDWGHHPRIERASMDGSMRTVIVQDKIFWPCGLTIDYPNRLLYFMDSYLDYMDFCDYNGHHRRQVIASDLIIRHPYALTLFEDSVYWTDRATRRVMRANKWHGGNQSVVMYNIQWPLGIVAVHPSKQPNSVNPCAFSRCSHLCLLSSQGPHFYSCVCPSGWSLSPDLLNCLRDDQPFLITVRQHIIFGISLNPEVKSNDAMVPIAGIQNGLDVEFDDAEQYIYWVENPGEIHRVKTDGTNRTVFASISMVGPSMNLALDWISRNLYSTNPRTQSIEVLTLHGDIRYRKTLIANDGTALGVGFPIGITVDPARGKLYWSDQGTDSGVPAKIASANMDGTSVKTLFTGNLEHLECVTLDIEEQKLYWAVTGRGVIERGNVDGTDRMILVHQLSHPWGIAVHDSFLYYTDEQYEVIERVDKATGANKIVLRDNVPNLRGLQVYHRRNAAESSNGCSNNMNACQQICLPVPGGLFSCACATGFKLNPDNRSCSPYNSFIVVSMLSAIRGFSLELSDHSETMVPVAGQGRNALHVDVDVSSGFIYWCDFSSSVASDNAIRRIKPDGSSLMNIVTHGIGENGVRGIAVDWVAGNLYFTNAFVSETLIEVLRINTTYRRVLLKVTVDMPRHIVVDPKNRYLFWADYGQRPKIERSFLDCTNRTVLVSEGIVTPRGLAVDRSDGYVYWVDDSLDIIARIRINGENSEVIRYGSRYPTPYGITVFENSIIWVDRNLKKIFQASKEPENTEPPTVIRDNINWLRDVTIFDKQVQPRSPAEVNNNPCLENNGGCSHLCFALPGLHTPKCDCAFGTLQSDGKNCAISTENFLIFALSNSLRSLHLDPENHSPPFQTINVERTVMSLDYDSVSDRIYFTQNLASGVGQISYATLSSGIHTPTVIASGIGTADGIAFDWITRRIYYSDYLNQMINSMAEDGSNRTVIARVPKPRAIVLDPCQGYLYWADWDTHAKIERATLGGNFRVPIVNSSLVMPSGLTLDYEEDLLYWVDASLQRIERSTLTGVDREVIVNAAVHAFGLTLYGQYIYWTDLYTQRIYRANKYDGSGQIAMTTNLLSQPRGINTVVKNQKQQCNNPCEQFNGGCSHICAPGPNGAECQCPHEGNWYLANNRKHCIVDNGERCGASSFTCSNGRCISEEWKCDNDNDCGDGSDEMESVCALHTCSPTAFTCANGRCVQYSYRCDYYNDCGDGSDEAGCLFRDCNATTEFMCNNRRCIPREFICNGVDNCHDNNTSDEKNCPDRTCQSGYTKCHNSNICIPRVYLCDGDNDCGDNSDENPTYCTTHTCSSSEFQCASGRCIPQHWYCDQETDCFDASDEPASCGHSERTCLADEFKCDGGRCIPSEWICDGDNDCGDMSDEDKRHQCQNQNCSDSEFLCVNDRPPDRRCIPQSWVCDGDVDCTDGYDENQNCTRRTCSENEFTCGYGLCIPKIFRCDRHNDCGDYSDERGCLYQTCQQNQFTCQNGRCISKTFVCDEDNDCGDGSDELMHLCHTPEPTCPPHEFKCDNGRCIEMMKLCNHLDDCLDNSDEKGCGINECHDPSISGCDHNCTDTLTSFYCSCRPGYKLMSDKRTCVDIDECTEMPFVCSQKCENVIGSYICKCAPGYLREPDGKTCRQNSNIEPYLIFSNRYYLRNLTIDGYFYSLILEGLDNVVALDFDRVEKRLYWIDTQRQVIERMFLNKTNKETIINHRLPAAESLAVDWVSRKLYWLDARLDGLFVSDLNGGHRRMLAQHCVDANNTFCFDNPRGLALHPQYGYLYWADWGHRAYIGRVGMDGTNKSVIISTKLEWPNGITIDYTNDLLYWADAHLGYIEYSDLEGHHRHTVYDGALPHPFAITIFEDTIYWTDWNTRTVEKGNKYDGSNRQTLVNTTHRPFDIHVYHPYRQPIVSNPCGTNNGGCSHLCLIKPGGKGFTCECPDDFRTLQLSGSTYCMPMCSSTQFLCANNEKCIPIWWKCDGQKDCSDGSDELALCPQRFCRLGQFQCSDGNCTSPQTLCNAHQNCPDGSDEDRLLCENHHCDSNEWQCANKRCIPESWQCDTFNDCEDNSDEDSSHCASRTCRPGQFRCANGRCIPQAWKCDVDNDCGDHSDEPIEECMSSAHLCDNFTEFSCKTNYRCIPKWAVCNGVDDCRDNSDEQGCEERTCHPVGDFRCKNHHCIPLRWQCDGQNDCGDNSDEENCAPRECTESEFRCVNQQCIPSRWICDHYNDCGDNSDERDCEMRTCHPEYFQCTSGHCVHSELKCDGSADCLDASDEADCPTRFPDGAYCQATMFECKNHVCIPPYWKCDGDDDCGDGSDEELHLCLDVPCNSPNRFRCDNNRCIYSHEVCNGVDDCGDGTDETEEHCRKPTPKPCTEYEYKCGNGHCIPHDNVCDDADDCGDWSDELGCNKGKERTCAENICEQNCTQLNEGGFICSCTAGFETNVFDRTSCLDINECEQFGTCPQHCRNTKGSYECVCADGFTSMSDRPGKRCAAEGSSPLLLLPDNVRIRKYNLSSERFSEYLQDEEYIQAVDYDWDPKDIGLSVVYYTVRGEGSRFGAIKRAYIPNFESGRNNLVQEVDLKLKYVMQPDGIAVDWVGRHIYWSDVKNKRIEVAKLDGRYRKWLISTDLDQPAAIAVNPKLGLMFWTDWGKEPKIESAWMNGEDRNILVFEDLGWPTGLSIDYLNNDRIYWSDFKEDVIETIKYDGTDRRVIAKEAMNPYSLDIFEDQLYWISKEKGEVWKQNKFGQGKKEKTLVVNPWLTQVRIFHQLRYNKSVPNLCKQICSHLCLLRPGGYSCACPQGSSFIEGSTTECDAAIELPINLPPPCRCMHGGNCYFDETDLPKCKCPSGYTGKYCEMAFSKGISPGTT

## Clusterin (from UniProt P10909)
  Kd: 0.0142 µM
